Measured values taken from the supplement of paper PMC10724198.
± gives the standard deviation of the averaged measurements.

What was measured:
[1] = tested on: Saccharomyces cerevisiae; experiment: protein stability index of tFT-peptide fusion (C-terminal peptide) (PSI (0-1 scale)); higher = more stable (slower turnover)
Protocol: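 MPS profiling in S. cerevisiae of the tFT-X12 degron library: putative degron peptides plus stable controls, 12 aa, fused to the C-terminus of a sfGFP-mCherry timer. Cells are FACS-sorted into 8 mCherry/sfGFP bins and deep-sequenced. PSI runs from 0 (unstable) to 1 (stable). Backgrounds are wild type, das1Δ and doa10Δ at 30 °C, and wild type, das1Δ, cdc34-1 and cdc53-1 at 37 °C; 2-3 technical replicates each.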

[2] = tested on: Saccharomyces cerevisiae; experiment: as above; conditions: genetic background: wild type; temperature: 30 C
[3] = genetic background: cdc34-1, temperature: 37 C
[4] = genetic background: cdc53-1, temperature: 37 C
[5] = genetic background: das1 deletion, temperature: 30 C
[6] = genetic background: das1 deletion, temperature: 37 C
[7] = genetic background: doa10 deletion, temperature: 30 C
[8] = genetic background: wild type, temperature: 30 C
[9] = genetic background: wild type, temperature: 37 C
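Note: PSI is a weighted mean of sequencing reads over stability bins, variants kept only with over 10 reads, mCherry proximal and sfGFP distal, peptide attached via GGGS linker.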

Sequence	protein stability index [1, 3]	protein stability index [1, 4]	protein stability index [1, 5]	protein stability index [1, 6]	protein stability index [1, 7]	protein stability index [1, 8]	protein stability index [1, 9]	protein stability index [2]
DVHPLFYCIPVY	0.0345 ± 0.018	0.0286 ± 0.016	0.101 ± 0.037	0.0568 ± 0.014	0.0881 ± 0.0095	0.101 ± 0.02	0.0474 ± 0.03	0.13922 ± 3.4e-05
FAIPFVLFFRVT	0.161 ± 0.02	0.134 ± 0.0062	0.257 ± 0.03	0.333 ± 0.017	0.2593 ± 0.0021	0.173 ± 0.024	0.231 ± 0.013	0.224 ± 0.07
FASALAPLSAVA	0.48 ± 0.014	0.494 ± 0.022	0.366 ± 0.044	0.529 ± 0.001	0.307 ± 0.0091	0.358 ± 0.036	0.509 ± 0.0079	0.4002 ± 0.0029
FCASCLVCFIYL	0.492 ± 0.0074	0.501 ± 0.0053	0.426 ± 0.024	0.5207 ± 0.0051	0.444 ± 0.026	0.421 ± 0.031	0.517 ± 0.019	0.462 ± 0.023
FCCWCVCFGYSG	0.575 ± 0.093	0.604 ± 0.013	0.395 ± 0.019	0.582 ± 0.0089	0.372 ± 0.02	0.394 ± 0.025	0.549 ± 0.007	0.443 ± 0.0049
FCFCLVLRVFLG	0.118 ± 0.0026	0.171 ± 0.011	0.154 ± 0.03	0.272 ± 0.0093	0.172 ± 0.011	0.162 ± 0.024	0.222 ± 0.014	0.253 ± 0.034
FCFFSMGFVLAL	0.3489 ± 0.00089	0.365 ± 0.0065	0.334 ± 0.0061	0.45 ± 0.017	0.289 ± 0.0053	0.314 ± 0.017	0.422 ± 0.026	0.453 ± 0.072
FCIIVFYIFVGI	0.451 ± 0.061	0.506 ± 0.078	0.342 ± 0.027	0.48 ± 0.077	0.323 ± 0.024	0.333 ± 0.022	0.486 ± 0.042	0.382 ± 0.041
FCLMLWGAVLFL	0.216 ± 0.014	0.29 ± 0.0077	0.235 ± 0.019	0.364 ± 0.047	0.226 ± 0.015	0.223 ± 0.03	0.33 ± 0.0042	0.314 ± 0.025
FCVLLFFFPLII	0.272 ± 0.012	0.293 ± 0.04	0.271 ± 0.029	0.402 ± 0.0046	0.376 ± 0.037	0.261 ± 0.015	0.374 ± 0.012	0.363 ± 0.024
FEVLINIWFLSA	0.272 ± 0.028	0.388 ± 0.026	0.3 ± 0.042	0.422 ± 0.0066	0.185 ± 0.011	0.19 ± 0.018	0.324 ± 0.013	0.262 ± 0.019
FFACSLLFVLVF	0.0985 ± 0.0033	0.175 ± 0.022	0.177 ± 0.022	0.27 ± 0.0076	0.1392 ± 0.0012	0.17 ± 0.027	0.226 ± 0.014	0.228 ± 0.0075
FFAIFSLLLSFT	0.449 ± 0.015	0.482 ± 0.0083	0.401 ± 0.028	0.532 ± 0.012	0.399 ± 0.007	0.4 ± 0.014	0.527 ± 0.0072	0.459 ± 0.026
FFALYGHILGLF	0.702 ± 0.02	0.7821 ± 0.0041	0.611 ± 0.023	0.7525 ± 0.0025	0.472 ± 0.028	0.491 ± 0.016	0.685 ± 0.052	0.4957 ± 0.0022
FFFPFLCIAVSL	0.464 ± 0.036	0.474 ± 0.016	0.418 ± 0.034	0.472 ± 0.0053	0.4007 ± 0.0018	0.413 ± 0.018	0.436 ± 0.011	0.458 ± 0.022
FFICCPLLVVCS	0.0277 ± 0.012	0.0453 ± 0.027	0.091 ± 0.022	0.0716 ± 0.018	0.064 ± 0.016	0.0665 ± 0.035	0.0677 ± 0.021	0.109 ± 0.041
FFILVFFSLLST	0.2927 ± 0.0014	0.445 ± 0.018	0.283 ± 0.049	0.441 ± 0.032	0.244 ± 0.041	0.274 ± 0.033	0.4056 ± 0.0022	0.404 ± 0.032
FFLFILYFGSCF	0.358 ± 0.025	0.422 ± 0.0051	0.349 ± 0.034	0.481 ± 0.0073	0.362 ± 0.017	0.329 ± 0.012	0.448 ± 0.017	0.399 ± 0.029
FFLFLVCLFFFS	0.405 ± 0.016	0.36 ± 0.1	0.358 ± 0.032	0.487 ± 0.011	0.36 ± 0.049	0.355 ± 0.031	0.4333 ± 0.0037	0.37 ± 0.026
FFLLSVVLKYSV	0.0374 ± 0.0046	0.08659 ± 0.00036	0.103 ± 0.029	0.174 ± 0.0019	0.093 ± 0.021	0.0922 ± 0.021	0.14 ± 0.0075	0.19 ± 0.015

Sequence	protein stability index [1, 3]	protein stability index [1, 4]	protein stability index [1, 5]	protein stability index [1, 6]	protein stability index [1, 7]	protein stability index [1, 8]	protein stability index [1, 9]	protein stability index [2]
FFRFNCVFWLFL	0.509 ± 0.0099	0.551 ± 0.033	0.443 ± 0.021	0.604 ± 0.034	0.211 ± 0.0028	0.233 ± 0.016	0.428 ± 0.053	0.3129 ± 0.0019
FFRLFAPLLVVL	0.113 ± 0.02	0.0677 ± 0.015	0.188 ± 0.028	0.23 ± 0.033	0.2621 ± 0.0019	0.178 ± 0.019	0.1836 ± 0.0014	0.212 ± 0.01
FFSQLFLEIVAA	0.0642 ± 0.024	0.0709 ± 0.031	0.179 ± 0.03	0.196 ± 0.011	0.14 ± 0.018	0.175 ± 0.029	0.171 ± 0.027	0.257 ± 0.031
FFVFSFVLFFPL	0.347 ± 0.0076	0.427 ± 0.054	0.305 ± 0.046	0.456 ± 0.025	0.307 ± 0.006	0.322 ± 0.029	0.444 ± 0.022	0.369 ± 0.049
FFVLGPVVMSIH	0.278 ± 0.046	0.383 ± 0.032	0.285 ± 0.031	0.423 ± 0.02	0.2657 ± 0.0021	0.266 ± 0.038	0.4054 ± 0.0027	0.3849 ± 0.0033
FFVYFFLLLFWF	0.171 ± 0.015	0.0838 ± 0.023	0.213 ± 0.029	0.233 ± 0.027	0.272 ± 0.028	0.188 ± 0.015	0.196 ± 0.0034	0.208 ± 0.0049
FGARCSLSPLVT	0.7249 ± 0.0062	0.753 ± 0.017	0.618 ± 0.014	0.7463 ± 0.0025	0.639 ± 0.035	0.652 ± 0.019	0.6977 ± 0.0039	0.547 ± 0.1
FGCLFILRCSFL	0.429 ± 0.047	0.487 ± 0.00067	0.349 ± 0.035	0.5384 ± 0.00075	0.29 ± 0.0031	0.304 ± 0.026	0.4966 ± 0.0043	0.422 ± 0.0099
FGKGRSLLLVFS	0.548 ± 0.02	0.597 ± 0.022	0.378 ± 0.044	0.582 ± 0.0092	0.347 ± 0.015	0.395 ± 0.013	0.5765 ± 0.0039	0.475 ± 0.016
FGRAVWSRFCIV	0.604 ± 0.044	0.735 ± 0.029	0.601 ± 0.0099	0.736 ± 0.0076	0.13 ± 0.015	0.128 ± 0.03	0.177 ± 0.032	0.172 ± 0.064
FGVLLLFLFFLP	0.347 ± 0.0038	0.444 ± 0.02	0.337 ± 0.022	0.4673 ± 0.0036	0.322 ± 0.0086	0.323 ± 0.0085	0.427 ± 0.0068	0.413 ± 0.041
FHRSVVRLWLRN	0.49 ± 0.06	0.619 ± 0.024	0.604 ± 0.02	0.679 ± 0.0092	0.114 ± 0.0044	0.104 ± 0.031	0.181 ± 0.066	0.301 ± 0.041
FLAPPFLPPPPA	0.693 ± 0.021	0.7351 ± 0.00039	0.672 ± 0.014	0.758 ± 0.016	0.683 ± 0.02	0.705 ± 0.011	0.737 ± 0.015	0.748 ± 0.016
FLCLLASFVVCF	0.3271 ± 0.00067	0.312 ± 0.008	0.281 ± 0.039	0.384 ± 0.029	0.249 ± 0.0083	0.285 ± 0.028	0.336 ± 0.015	0.363 ± 0.008
FLFFWRASLFFW	0.116 ± 0.0025	0.164 ± 0.0095	0.183 ± 0.029	0.278 ± 0.027	0.178 ± 0.018	0.15 ± 0.029	0.191 ± 0.022	0.229 ± 0.023
FLIYMFRHCFFH	0.537 ± 0.071	0.626 ± 0.034	0.593 ± 0.015	0.676 ± 0.039	0.268 ± 0.013	0.278 ± 0.028	0.393 ± 0.018	0.345 ± 0.029
FLMCVFFLCFSN	0.304 ± 0.031	0.41 ± 0.051	0.308 ± 0.024	0.472 ± 0.015	0.208 ± 0.0021	0.22 ± 0.019	0.325 ± 0.029	0.34 ± 0.028
FLSLPLFILFLS	0.229 ± 0.036	0.232 ± 0.041	0.283 ± 0.029	0.39 ± 0.02	0.1217 ± 0.00068	0.0821 ± 0.013	0.119 ± 0.0033	0.132 ± 0.014
FLSLSFLLLHFP	0.398 ± 0.018	0.39044 ± 0.00026	0.385 ± 0.04	0.535 ± 0.0059	0.543 ± 0.017	0.434 ± 0.041	0.479 ± 0.005	0.471 ± 0.064
